Measured values as given in US20050171014A1 (GOVERNMENT OF THE UNITED STATES OF AMERICA REPRESENTED BY …, published 2005).
Non-standard residues stand in square brackets, D forms with d. HTI‑286 = hemiasterlin derivative, cytotoxic agent; Cha = N[C@@H](CC1CCCCC1)C(=O)O; Nle = CCCC[C@H](N)C(=O)O

Assays:
[1] = target: low-affinity gastrin receptor of nontransfected cells; experiment: cell-based or functional assay
gastrin receptor = target: T1, gastrin receptor; experiment: cell-based or functional assay
T1 sequence (P32239 whole entry, species assumed, looked up): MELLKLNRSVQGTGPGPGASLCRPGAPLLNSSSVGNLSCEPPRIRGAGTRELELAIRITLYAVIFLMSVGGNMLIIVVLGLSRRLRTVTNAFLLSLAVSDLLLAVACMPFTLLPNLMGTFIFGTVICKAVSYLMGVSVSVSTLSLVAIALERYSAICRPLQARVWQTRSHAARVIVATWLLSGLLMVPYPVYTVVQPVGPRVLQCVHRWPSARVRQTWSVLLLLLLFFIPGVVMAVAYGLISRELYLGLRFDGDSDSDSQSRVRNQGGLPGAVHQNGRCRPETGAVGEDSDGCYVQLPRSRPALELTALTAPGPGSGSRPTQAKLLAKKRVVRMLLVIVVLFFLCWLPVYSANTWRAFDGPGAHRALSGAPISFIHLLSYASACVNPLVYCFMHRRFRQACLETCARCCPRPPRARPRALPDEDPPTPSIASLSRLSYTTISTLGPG

IC50, growth inhibition of nontransfected cells (MTT or sulforhodamine assay) [1]: 300 nM
IC50, growth inhibition of gastrin receptor-expressing 3T3 cells (MTT or sulforhodamine assay) (gastrin receptor): 10 nM
Binder: {HTI‑286}-[Cha]LALAEEEAYGW[Nle]DF-NH2 [HTI-286-Cha-Leu-Ala-Leu-Ala-EEEAYGW-Nle-DF-NH2]
